# Source: PMC4849473
# Assays:
# [1] = biological target: Chp1CD LOOP1B/2B, SUMO tag removed, fluorescently labelled (for MST) (fission yeast (S. pombe)) (UniProt Q10103); test: MST; 300 ng fluorescent Chp1CD (SUMO removed) in 20 μl, H3K9me3Nucleosomes titrated (0 to 2.4 μM); 10 mM Tris-HCl pH 7.5, 150 mM NaCl, 0.5 mM DTT, 0.05% Tween-20, 10% glycerol; cubic fit, Kd interpolated at 50% bound
# [2] = tested on: His6-SUMO-Chp1CD LOOP1B/2B (Schizosaccharomyces pombe); test: MST; conditions: H3KC9me3 methyl-lysine analog; X. laevis H2A, H2B, H3, H4; Nucleosome pull-down: 20 mM HEPES pH 7.5, 100 mM KCl, 0.5 mM DTT, 40 mM imidazole, on ice; complex assembly and RNA pull-down: 20 mM HEPES pH 7.5, 75 mM KCl, 0.
# Chain of Chp1CD LOOP1B/2B, SUMO tag removed, fluorescently labelled (for MST) (fission yeast (S. pombe)) (Q10103 15-75 N33A/N35A/W49A/Y50A/D51A): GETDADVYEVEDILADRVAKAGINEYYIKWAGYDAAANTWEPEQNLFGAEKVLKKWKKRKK
fold reduction in Kd against wild-type Chp1CD [1] [fold],Substance,binding signal (fold reduction in Kd vs wt) [2]
> 5,H3K9me3 methyl lysine analog (MLA) nucleosome (complex),
,H3K9me3 nucleosome (601),> 5
